From patent US5990275

Experiments:
[1] = molecular target: TAG-72 antigen on a human breast carcinoma extract (human); assay: competition RIA against 125I-labeled CC49 IgG, human breast carcinoma extract
[2] = molecular target: CC49/212 single-chain Fv

Substance | fold lower affinity than the CC49/212 sFv [1] | half-life (t1/2) of intact sFv, reverse phase HPLC [2]
CC49/218 single-chain Fv (scFv) | 4 fold | 
subtilisin BPN' (Type XXVII protease, Sigma) (from UniProt P00782) (enzyme) |  | 2.05 h
trypsin (enzyme) |  | 3.26 h
